According to patent US11174311B2, “Antibody against trimeric TNFα complex” (UCB BIOPHARMA SRL, priority 2016, dated 2021):
Entries after “also recorded” stand apart in the source; their conditions may differ.

How the values were obtained:
soluble form of TNFα = target: T1, soluble form of TNFα (Homo sapiens, UniProt P01375); assay: SPR on Biacore 4000 against immobilised soluble TNFα; assay type: binding; conditions: concentration of up to 100 μM
T1 construct: the immobilised soluble form of CD40L and the soluble form of TNFα
Procedure: In another experiment, BIO8898 was tested against the immobilised soluble form of CD40L and the soluble form of TNFα by SPR on a Biacore 4000 machine.

Human TNFα [1] = target: T2, Human TNFα (Homo sapiens, UniProt P01375); assay: Single cycle kinetics by surface plasmon resonance; assay type: binding; set-up: made in house
Procedure: For single cycle kinetics profiling of compound (1) to either directly immobilised TNFα or CA1974-captured TNFα surface plasmon resonance was performed at 25° C. using a BIAcore T200 (GE Healthcare). Human TNFα was tethered onto flow-channel (Fc)2 (2000 RU). CA1974 IgG (>10,000 response units) was tethered onto Fc3,4 and Fc1 blank immobilisation on a CMS Sensor Chip (GE Healthcare) via amine coupling chemistry. The surface was allowed to stabilise in HBS-P buffer (10 mM HEPES, pH 7.4, 0.15 M NaCl, 0.0005% (v/v) surfactant P20-GE Healthcare)+5% DMSO was used as the running buffer. Human TNFα was flowed over Fc4 to a capture level of ˜2,000 RU. Compound (1) was flowed over all four flow cells in series (1.875 μM, 3.75 μM, 7.5 μM and 30 μM) at 100 μl/min. Double referenced background-subtracted binding curves were produced using the T200 Evaluation software (version 1.0) following standard procedures.
Target sequence in this assay (P01375 77-233 limits assumed): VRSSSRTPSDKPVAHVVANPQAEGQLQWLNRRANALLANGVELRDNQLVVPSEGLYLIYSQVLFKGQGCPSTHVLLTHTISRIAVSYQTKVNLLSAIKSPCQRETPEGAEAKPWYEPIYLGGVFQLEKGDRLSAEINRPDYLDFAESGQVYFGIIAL

[2] = target: human TNFα complexed with compound (1) (Homo sapiens, UniProt P01375); assay: Size exclusion chromatography (HPLC) of mouse Fab with TNFα-compound complex; assay type: binding
membrane-bound TNFα = assay: FACS assay, engineered NS0 cell line overexpressing membrane TNFα; assay type: cell-based; conditions: Fab fragments
Procedure: An engineered NS0 cell line, which overexpresses membrane TNFα, due to knock-out of the TACE cleavage site was incubated with 0.001-10 μM compound (1) or 0.1% DMSO for 1 h at 37° C. Cells were washed, fixed and stained with antibody Fab fragments at 0.01 or 0.1 μg/ml for 1 hour on ice. (Secondary antibody was anti-mouse Fab-DyeLight488 from Jackson ImmunoResearch).

Human TNFα [3] = target: T2, Human TNFα; assay: FACS assay, HEK JumpIn cells overexpressing TNF-RI, receptor-bound TNFα; assay type: cell-based; set-up: host or cells: HEK JumpIn cells (express the partner TNF-RI only); conditions: antibody at 1 and 10 μg/ml
Procedure: Recombinant antibodies were also tested for binding to compound-distorted TNFα in a FACS assay using human embryonic kidney (HEK) JumpIn cells, which overexpress TNF-RI after induction with doxycycline at 1 μg/ml for 2.5 hours. HEK cells were trypsinised and incubated for 2 h in medium to allow recovery of digested TNFRI levels. Human TNFα at 2 μg/mL was pre-incubated with 40 μM compound (1) or 0.4% DMSO for 1 h at 37° C. The pre-incubation mix was added to the cells for 1 h on ice (dilution 1:4, final concentrations: 0.5 μg/mL human-TNFα+/−[…] or 0.1% DMSO). […] (Secondary antibody: anti-mouse-Alexa488), before analysis for receptor-bound TNFα.
Target sequence in this assay (P01375 77-233 limits assumed): as above
Target sequence in this assay (P19438 30-455 partner): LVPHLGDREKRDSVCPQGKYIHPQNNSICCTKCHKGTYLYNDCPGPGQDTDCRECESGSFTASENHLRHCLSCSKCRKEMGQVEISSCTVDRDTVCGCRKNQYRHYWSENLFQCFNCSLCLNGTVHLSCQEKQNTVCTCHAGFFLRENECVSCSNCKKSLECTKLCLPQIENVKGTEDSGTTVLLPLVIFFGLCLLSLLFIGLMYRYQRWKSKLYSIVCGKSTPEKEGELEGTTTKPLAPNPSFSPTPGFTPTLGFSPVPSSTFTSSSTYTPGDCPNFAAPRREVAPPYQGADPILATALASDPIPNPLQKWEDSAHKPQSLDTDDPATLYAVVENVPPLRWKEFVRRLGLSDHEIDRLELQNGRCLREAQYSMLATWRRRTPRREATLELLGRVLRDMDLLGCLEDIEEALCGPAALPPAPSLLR

T1 sequence (P01375 77-233 limits assumed): as the sequence (P01375 77-233 limits assumed) above
Chain of membrane-bound TNFα (P01375 90-233 limits assumed): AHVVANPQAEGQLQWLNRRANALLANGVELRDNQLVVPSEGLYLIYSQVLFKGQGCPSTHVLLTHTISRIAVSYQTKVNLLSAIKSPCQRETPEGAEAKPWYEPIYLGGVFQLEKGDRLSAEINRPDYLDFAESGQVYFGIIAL
Chain of human TNFα complexed with compound (1) (P01375 77-233 limits assumed, one chain of several): as the sequence (P01375 77-233 limits assumed) above

O=C(NCc1cccc(-c2ccccc2)c1)c1cc(-c2cc(C(=O)NC(C(=O)O)C3CCCCC3)nc(C(=O)N3CCCC3CN3CCCC3)c2)cc(C(=O)N2CCCC2CN2CCCC2)n1 (centres unmarked) [BIO8898]
binding to TNFα (soluble form of TNFα): not to bind; also recorded: no binding

Cc1ccc(C)c(Cn2c(C(O)c3ccncc3)nc3ccc(-c4cnn(C)c4)cc32)c1 (centres unmarked) [compound (1)]
binding kinetics profile (Human TNFα [1]; TNFα captured via antibody CA1974): fast on-fast off
binding kinetics profile (Human TNFα [1]; directly immobilised apo-TNF): slow on-slow off

B1: CA185_01979: rat-derived conformation-selective antibody to TNFα-compound complex, LCVR SEQ ID NO: 22, HCVR SEQ ID NO: 23; used as mouse IgG or mouse Fab (antibody, V domains shown)
VH: EVHLVESGPGLVKPSQSLSLTCSVTGYSITNSYWDWIRKFPGNKMEWMGYINYSGSTGYNPSLKSRISISRDTSNNQFFLQLNSITTEDTATYYCARGTYGYNAYHFDYWGRGVMVTVSS
VL: DIQMTQSPASLSASLEEIVTITCQASQDIGNWLSWYQQKPGKSPHLLIYGTTSLADGVPSRFSGSRSGTQYSLKISGLQVADIGIYVCLQAYSTPFTFGSGTKLEIK
modifications: HCVR of 1979; LCVR of 1979
notes: used as mouse IgG or mouse Fab
stoichiometry Fab : TNFα trimer [2]: 1 Fab: 1 TNFα trimer
staining with the DMSO controls (membrane-bound TNFα; cells incubated with 0.1% DMSO): no staining
staining / recognition of membrane TNF (membrane-bound TNFα; cells incubated with compound (1)): only recognise TNF which has been pre-incubated with compound (1)
staining with the DMSO control (Human TNFα [3]; TNFα pre-incubated with DMSO): no staining
staining / recognition of receptor-bound TNFα (Human TNFα [3]; TNFα pre-incubated with compound (1)): only recognise TNFα which has been pre-incubated with compound (1)
